Data: US12692294B2, “Engineered NRG-1 variants with improved selectivity toward ErbB4 but not against ErbB3” (Amgen Inc., priority 2021, dated 2026)
Where “and” joins values, the source holds several entries; their conditions need not be identical. Identical values can stand only once.

Assays:
[1] = molecular target: T1, ErbB3 (Rattus norvegicus, UniProt Q62799); assay: In vitro phosphorylation of Akt in rat Schwann cells; assay type: cell-based; conditions: Akt (Serine 473) phosphorylation, 15 minutes treatment, read-out: Schwann cells (SC) (ErbB3) Avg EC50
T1 construct: forming the ErbB2/ErbB4 complex in cardiomyocytes and the ErbB2/ErbB3 complex in Schwann cells; endogenous in cells; host or cells: rat Schwann cells
T1 sequence (Q62799 20-1339): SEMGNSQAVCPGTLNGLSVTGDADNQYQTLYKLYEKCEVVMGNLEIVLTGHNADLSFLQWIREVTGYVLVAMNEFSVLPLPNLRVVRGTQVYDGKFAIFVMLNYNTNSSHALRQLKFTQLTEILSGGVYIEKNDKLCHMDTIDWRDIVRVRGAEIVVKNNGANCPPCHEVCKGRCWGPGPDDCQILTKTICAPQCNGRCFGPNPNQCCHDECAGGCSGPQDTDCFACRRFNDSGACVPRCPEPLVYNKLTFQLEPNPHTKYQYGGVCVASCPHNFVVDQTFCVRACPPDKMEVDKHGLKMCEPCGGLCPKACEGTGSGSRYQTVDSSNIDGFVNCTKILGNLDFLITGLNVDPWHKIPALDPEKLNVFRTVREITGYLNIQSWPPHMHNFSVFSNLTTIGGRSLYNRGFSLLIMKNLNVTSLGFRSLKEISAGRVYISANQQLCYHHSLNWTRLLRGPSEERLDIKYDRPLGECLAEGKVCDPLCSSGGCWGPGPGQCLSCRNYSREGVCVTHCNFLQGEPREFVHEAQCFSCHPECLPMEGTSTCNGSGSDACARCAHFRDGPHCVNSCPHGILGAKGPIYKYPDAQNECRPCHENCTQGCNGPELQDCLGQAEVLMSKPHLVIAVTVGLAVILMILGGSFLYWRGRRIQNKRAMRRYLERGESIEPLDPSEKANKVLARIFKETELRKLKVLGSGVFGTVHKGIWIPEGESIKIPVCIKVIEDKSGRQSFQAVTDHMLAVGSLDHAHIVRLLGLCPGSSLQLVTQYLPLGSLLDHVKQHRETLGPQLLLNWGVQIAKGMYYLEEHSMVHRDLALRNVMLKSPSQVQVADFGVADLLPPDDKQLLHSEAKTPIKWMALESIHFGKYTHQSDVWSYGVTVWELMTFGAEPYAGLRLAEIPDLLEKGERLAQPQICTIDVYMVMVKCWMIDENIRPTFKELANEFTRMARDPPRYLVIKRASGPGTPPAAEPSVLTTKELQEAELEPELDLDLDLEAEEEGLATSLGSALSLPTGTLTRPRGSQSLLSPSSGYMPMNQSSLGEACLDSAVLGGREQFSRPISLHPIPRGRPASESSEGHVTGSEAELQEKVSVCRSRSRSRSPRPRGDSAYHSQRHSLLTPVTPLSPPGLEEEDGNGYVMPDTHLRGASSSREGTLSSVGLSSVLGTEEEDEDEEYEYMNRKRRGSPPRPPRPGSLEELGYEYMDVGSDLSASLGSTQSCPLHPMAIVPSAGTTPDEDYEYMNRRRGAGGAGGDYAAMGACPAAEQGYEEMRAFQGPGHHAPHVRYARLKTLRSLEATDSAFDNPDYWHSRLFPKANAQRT
T1 sequence (P06494 23-1257 partner): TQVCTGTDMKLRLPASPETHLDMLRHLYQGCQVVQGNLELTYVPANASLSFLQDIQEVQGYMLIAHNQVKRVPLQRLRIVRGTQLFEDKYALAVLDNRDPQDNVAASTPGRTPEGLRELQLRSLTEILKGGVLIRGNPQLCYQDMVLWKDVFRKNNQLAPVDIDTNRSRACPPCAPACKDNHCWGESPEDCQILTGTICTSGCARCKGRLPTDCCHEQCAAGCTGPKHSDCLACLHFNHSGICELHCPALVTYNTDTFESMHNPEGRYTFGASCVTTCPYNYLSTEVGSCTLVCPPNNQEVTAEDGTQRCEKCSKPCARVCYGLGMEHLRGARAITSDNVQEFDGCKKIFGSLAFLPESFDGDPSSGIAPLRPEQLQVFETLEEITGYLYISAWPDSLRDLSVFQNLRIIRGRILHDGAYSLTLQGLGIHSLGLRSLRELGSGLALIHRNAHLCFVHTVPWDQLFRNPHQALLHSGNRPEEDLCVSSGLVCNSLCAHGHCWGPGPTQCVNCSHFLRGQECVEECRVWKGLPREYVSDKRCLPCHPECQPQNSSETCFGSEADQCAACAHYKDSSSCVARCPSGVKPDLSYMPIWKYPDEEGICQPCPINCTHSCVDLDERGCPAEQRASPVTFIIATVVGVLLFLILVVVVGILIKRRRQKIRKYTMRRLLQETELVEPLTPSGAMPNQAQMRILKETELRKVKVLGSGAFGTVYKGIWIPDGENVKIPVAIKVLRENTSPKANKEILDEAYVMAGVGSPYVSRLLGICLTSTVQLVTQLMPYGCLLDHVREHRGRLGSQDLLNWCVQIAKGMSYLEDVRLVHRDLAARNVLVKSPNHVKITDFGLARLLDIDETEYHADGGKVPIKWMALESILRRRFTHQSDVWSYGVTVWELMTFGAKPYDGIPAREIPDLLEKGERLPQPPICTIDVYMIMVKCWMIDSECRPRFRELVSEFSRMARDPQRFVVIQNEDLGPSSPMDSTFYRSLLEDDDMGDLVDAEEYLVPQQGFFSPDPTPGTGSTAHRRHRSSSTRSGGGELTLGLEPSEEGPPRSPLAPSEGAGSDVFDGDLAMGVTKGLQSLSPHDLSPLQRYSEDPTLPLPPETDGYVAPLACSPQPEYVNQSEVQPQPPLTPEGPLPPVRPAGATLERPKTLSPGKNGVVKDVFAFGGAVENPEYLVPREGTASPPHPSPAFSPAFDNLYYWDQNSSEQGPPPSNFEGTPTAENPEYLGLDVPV
Method: (§1) In Vitro Phosphorylation of Akt in Neonatal Rat Cardiomyocytes and Rat Schwann Cells by Neuregulin Variants
(§2) Specificity of neuregulin variants towards cardiomyocytes (ErbB4) versus Schwann cells (ErbB3) was tested by measuring Akt activity generated by formation of the ErbB2/ErbB4 and ErbB2/ErbB3 complexes. Upon activation by neuregulin, the ErbB4 and ErbB3 receptors dimerize preferentially with the ErbB2 co-receptor, forming the ErbB2/ErbB4 complex in cardiomyocytes and the ErbB2/ErbB3 complex in Schwann cells, both of which signal through the Akt pathway. Neonatal rat cardiomyocytes were isolated from hearts of Sprague Dawley rat pups at 0 to 4 days old according to manufacturer's protocol using the Neomyt kit and plated on Surecoat plates in NS media containing serum (all from Cellultron Life Technologies, Baltimore, MD). Rat Schwann cells were plated in Poly-D-Lysine coated plates with Dulbecco's modified Eagle's media (DMEM) supplemented with fetal bovine serum (Thermo Fisher) and forskolin (Millipore Sigma).
(§3) After a 24-hour incubation in a humidified incubator maintained at 37° C. and 5% CO2, cardiomyocytes and Schwann cells were washed with serum free media and incubated an additional 16 hours in DMEM supplemented with bovine serum albumin (Sigma). Both cell lines were then treated with titrations of the neuregulin variant molecules for 15 minutes, upon which cells were lysed in lysis buffer (Meso Scale Discovery (MSD)). For detection of Akt phosphorylation, lysates were added to the Multi-Spot 96-Well 4-Spot Phospho (Serine 473)/Total Akt plates (MSD), incubated according to the manufacturer's protocol and read in the SECTOR Imager 6000 (MSD). For both cell assays, the percent phosphorylation of Akt was calculated by multiplying the phospho Akt signal by 2, then dividing by the phospho Akt signal added to the total Akt signal and then multiplying by 100. The phosphorylation of Akt data points were fitted using a log (agonist) versus response, variable slope (4 parameters) analysis in GraphPad Prism to generate EC50 curves. The CM % agonism reflect the top value of the data points.

[2] = molecular target: T2, ErbB4 (Rattus norvegicus, UniProt Q62956); assay: In vitro phosphorylation of Akt in neonatal rat cardiomyocytes; assay type: cell-based; conditions: for Selectivity SC/CM: ratio of EC50s Schwann cells/cardiomyocytes; for CM % Agonism AVG: top value of the Akt phosphorylation data points in cardiomyocytes, wild-type control 100; for EC50: Akt (Serine 473) phosphorylation, neonatal rat cardiomyocytes, 15 minutes treatment, read-out: Cardiomyocyte (CM) (ErbB4) Avg EC50
T2 construct: forming the ErbB2/ErbB4 complex in cardiomyocytes and the ErbB2/ErbB3 complex in Schwann cells; endogenous in cells; host or cells: primary neonatal rat cardiomyocytes (Sprague Dawley pups, 0 to 4 days old)
T2 sequence (Q62956 26-1308): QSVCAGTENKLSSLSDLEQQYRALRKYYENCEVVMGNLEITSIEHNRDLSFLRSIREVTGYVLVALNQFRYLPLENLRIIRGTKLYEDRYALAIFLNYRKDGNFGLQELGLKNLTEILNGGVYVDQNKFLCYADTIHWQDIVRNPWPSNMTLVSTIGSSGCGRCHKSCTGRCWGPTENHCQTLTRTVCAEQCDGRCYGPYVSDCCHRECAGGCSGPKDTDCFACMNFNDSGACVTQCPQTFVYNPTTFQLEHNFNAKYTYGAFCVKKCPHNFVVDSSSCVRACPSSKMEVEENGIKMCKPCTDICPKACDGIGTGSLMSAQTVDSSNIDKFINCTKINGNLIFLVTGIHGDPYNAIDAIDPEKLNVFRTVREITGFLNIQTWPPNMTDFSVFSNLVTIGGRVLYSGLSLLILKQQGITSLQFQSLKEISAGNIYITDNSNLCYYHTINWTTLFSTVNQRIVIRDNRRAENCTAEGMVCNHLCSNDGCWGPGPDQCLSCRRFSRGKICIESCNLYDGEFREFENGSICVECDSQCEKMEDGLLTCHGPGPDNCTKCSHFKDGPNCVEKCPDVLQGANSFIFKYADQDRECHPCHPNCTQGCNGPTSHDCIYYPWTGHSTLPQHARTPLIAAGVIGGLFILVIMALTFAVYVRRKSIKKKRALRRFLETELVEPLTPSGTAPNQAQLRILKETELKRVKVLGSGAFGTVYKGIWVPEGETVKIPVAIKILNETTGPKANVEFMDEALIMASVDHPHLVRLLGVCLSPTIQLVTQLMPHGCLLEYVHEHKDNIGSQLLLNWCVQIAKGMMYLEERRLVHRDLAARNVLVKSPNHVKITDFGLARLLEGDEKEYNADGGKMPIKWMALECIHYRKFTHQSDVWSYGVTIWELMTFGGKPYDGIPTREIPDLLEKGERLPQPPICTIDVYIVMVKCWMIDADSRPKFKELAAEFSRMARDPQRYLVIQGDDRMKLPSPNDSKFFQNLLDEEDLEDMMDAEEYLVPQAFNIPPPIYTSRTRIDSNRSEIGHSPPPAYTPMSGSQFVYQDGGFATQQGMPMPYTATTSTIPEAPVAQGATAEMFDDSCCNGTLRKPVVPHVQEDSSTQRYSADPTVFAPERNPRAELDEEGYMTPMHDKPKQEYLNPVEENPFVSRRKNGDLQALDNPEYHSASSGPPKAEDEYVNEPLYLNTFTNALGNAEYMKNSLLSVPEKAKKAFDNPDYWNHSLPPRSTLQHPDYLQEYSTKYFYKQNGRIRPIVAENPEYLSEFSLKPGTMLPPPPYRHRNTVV
T2 sequence (P06494 23-1257 partner): as the sequence (P06494 23-1257 partner) above
Method: as §1, §2, §3

| EC50 [1] | Selectivity SC/CM [2] | CM % Agonism AVG [2] | EC50 [2] [nM] | Substance |
| --- | --- | --- | --- | --- |
| 0.112 nM and 0.15 nM | 0.4 and 0.3 | Full |  | huNRG1(S177-Q237)(wt)::GG::huFcSEFL2 (Pb): Fc fusion of wild-type NRG1 fragment S177-Q237 [reference compound] |
| 10000 nM | >10000 | 86.3% | 0.37 | huNRG1(S177-F229)(NRGE1D) (E47S_D48S_F49E_M50L) huIgG1z SELF2 Fc: Fc fusion of NRG1 variant SEQ ID NO:128 |
| 9.33 nM | 62.2 | 88.5% | 0.15 | huNRG1(S177-F229)(NRGE1D) (E47K_D48L_F49D_M50I) huIgG1z SELF2 Fc: Fc fusion of NRG1 variant SEQ ID NO:127 |
| 0.0222 nM | 0.2643 | 92.6% | 0.084 | huNRG1(S177-S228)(wt)((G4E)2:G4)::huFcSEFL2 (Pb): Fc fusion of wild-type NRG1 fragment S177-S228 [reference compound] |
| 10000 nM | >10000 | 76% | 0.19 | huNRG1(S177-F229)(NRGE1C) (E47S_D48T_F49R_M50V) huIgG1z SELF2 Fc: Fc fusion of NRG1 variant SEQ ID NO:123 |
|  | 0.3 |  | 0.34 | huNRG1(S177-F229)(wt)::3x(G4Q)::huFcSEFL2 (Pb): Fc fusion of wild-type NRG1 fragment S177-F229 [reference compound] |
| 10000 nM | >10000 | 79.5% | 0.39 | huNRG1(S177-F229)(NRGE1D) (E47T_D48S_F49L_M50L) hnIgG1z SELF2 Fc: Fc fusion of NRG1 variant SEQ ID NO:129 |
| 0.07 nM | 0.3 |  | 0.21 | huNRG1(S177-Q237)(wt)::3x(G4Q)::huFcSEFL2 (Pb): Fc fusion of wild-type NRG1 fragment S177-Q237 [reference compound] |
